Reference: publication PMC8207546

How the values were obtained:
[1] = LC3-LAMP2 co-IP with added recombinant GRASP55; conditions: glycan gained; control: non-O-GlcNAcylated His-GRASP55 (coexpressed with GST)
[2] = in vitro fusion of GFP-LC3 and LAMP2B-mCherry vesicles; conditions: glycan gained; control: non-O-GlcNAcylated His-GRASP55

GRASP55: O-GlcNAcylated His-GRASP55 (coexpressed with GST-OGT)
other: bridging of LC3-LAMP2 interaction [1]: decreases

GRASP55: O-GlcNAcylated His-GRASP55
other: autophagosome-lysosome fusion activity [2]: decreases
